Laboratory results reported in patent US20110293511A1 (LUDWIG INSTITUTE FOR CANCER RESEARCH, published 2011).
Ends that are not written are not given here. * marks the point of attachment. Biotin = O=C1N[C@H]2[C@H](CS[C@H]2CCCCC(=O)*)N1

T1: de2-7 EGFR unique junctional peptide (human)
T1 construct: non-biotinylated; also called Junction Peptide
T1 peptide: LEEKKGNYVVTDH-OH

T2: biotinylated de2-7 specific peptide (Biotin-LEEKKGNYVVTDH) (human)
T2 construct: also called unique de2-7 EGFR peptide
T2 peptide: Biotin-LEEKKGNYVVTDH

T3: Peptide C, C-terminal biotinylated de2-7 peptide (human, C-terminal biotin; the reagent list prints it on an added lysine, LEEKKGNYVVTDH(K-Biot)-OH)
T3 peptide: LEEKKGNYVVTDH

B1: chimeric antibody ch806 (antibody, human IgG1, V domains shown)
VH: DVQLQESGPSLVKPSQSLSLTCTVTGYSITSDFAWNWIRQFPGNKLEWMGYISYSGNTRYNPSLKSRISITRDTSKNQFFLQLNSVTIEDTATYYCVTAGRGFPYWGQGTLVTVSA
VL: DILMTQSPSSMSVSLGDTVSITCHSSQDINSNIGWLQQRPGKSFKGLIYHGTNLDDEVPSRFSGSGSGADYSLTISSLESEDFADYYCVQYAQFPWTFGGGTKLEIKR
notes: also called chAb806
B2: mAb806 (antibody, V domains shown)
VH: B1 VH
VL: B1 VL
notes: murine IgG2b

How the values were obtained:
[1] = molecular target: T4, anti-idiotype antibody LMH-12; experiment: sandwich ELISA: capture on plate-bound LMH-12 (10 µg/ml), detection with biotinylated LMH-12 and avidin-HRP
T4 construct: mouse IgG1 kappa; also called clone 5B8; SB8

[2] = molecular target: T1, de2-7 EGFR unique junctional peptide; experiment: dot-blot immune stain
[3] = molecular target: T2, biotinylated de2-7 specific peptide …; experiment: ELISA, biotinylated peptide on streptavidin plates
[4] = molecular target: T3, Peptide C, C-terminal biotinylated …; experiment: BIAcore, Peptide C on streptavidin chip
[5] = molecular target: EGFR fragment 1-176, yeast-displayed (human, UniProt P00533 25-200); experiment: flow cytometry on yeast displaying the EGFR fragment, % positive cells
[6] = molecular target: EGFR fragment 475-621, yeast-displayed (human, UniProt P00533 499-645); experiment: as above
[7] = molecular target: T5, EGFR fragment 1-294, yeast-displayed (human, UniProt P00533 25-318); experiment: flow cytometry, indirect immunofluorescence on yeast displaying EGFR fragment 1-294
T5 construct: range 1-294

Row | Binder | EC50 (read off the curve) [1] [µg/mL] | binding result [2] | binding result [3] | binding result [4] | binding result [5] | binding result [6] | binding result [7]
1 | B1 | ~0.6 | – | – | – | – | – | –
2 | B2 | ~0.07 | no binding | no binding | no binding (tested: 100 nM) | no binding (tested: 10 µg/ml (single concentration)) | no binding (tested: 10 µg/ml (single concentration)) | no binding (tested: 10 µg/ml (single concentration))
